Target: myelin basic protein
Sequence (P02687 whole entry): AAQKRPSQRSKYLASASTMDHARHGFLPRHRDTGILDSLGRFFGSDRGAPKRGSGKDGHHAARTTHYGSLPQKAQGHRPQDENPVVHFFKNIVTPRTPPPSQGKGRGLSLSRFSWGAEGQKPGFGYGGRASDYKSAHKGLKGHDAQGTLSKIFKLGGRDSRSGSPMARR

B1: wild type protein kinase Nitab4.5_0003679 g0060.2 (SEQ ID No. 3) (protein)
chain: MAIEDNESCGSRVVDSATTSGRHQRKKLEVYNEVLRRLKESNNVEALEPGFDDELWAHFNRLPTRYAIDVNVERAEDVLTHKRLLHLAHVPANRPAFDVRLVQVASVPDGNLRDSFHSSFAKKEVSRSVHPPPAFGSSPNLEALACEAIKSEVQDEDTAAPCANFSRPMHEITFSTDDKPKLLSQLTSLLAELGLNIQEAHAFSTVDGYSLDVFVVDGWPYEEVVRLRTALEREILRNEKSWPSPSQSFIKQEQDLIKREFDHLTIPFDGIDVWEIDHQLLKFEYKIASGSYGDLYKGTYCSQDVAIKILKSERLNTELQTEFAQEVYIMRKVRHKNVVQFIGACTRPPNLCIVTEYMSGGSVYDYLHKRKGSFKLPTLLKVAIDVAKGMNYLHQNNIIHRDLKAANLLMDENEVIKVADFGVARVKAQTGVMTAETGTYRWMAPEVIEHKPYDHKADVFSFGVVLWELLTGKLPYEYLTPLQAAIGVVQKGLRPTIPKHTPPRLAELLETCWQQDPTSRPDFSEIVDILQQIAKEVGDERADRCKEKSAGGFFSALRRGHH
in vitro kinase reaction; phosphorylation detected by Pro-Q Diamond phosphoprotein gel stain after SDS-PAGE: K308 (i.e. the wild type SEQ ID No. 3) is an active protein kinase

B2: K308M variant of protein kinase Nitab4.5_0003679 g0060.2 (SEQ ID No. 3) (protein)
chain: MAIEDNESCGSRVVDSATTSGRHQRKKLEVYNEVLRRLKESNNVEALEPGFDDELWAHFNRLPTRYAIDVNVERAEDVLTHKRLLHLAHVPANRPAFDVRLVQVASVPDGNLRDSFHSSFAKKEVSRSVHPPPAFGSSPNLEALACEAIKSEVQDEDTAAPCANFSRPMHEITFSTDDKPKLLSQLTSLLAELGLNIQEAHAFSTVDGYSLDVFVVDGWPYEEVVRLRTALEREILRNEKSWPSPSQSFIKQEQDLIKREFDHLTIPFDGIDVWEIDHQLLKFEYKIASGSYGDLYKGTYCSQDVAIMILKSERLNTELQTEFAQEVYIMRKVRHKNVVQFIGACTRPPNLCIVTEYMSGGSVYDYLHKRKGSFKLPTLLKVAIDVAKGMNYLHQNNIIHRDLKAANLLMDENEVIKVADFGVARVKAQTGVMTAETGTYRWMAPEVIEHKPYDHKADVFSFGVVLWELLTGKLPYEYLTPLQAAIGVVQKGLRPTIPKHTPPRLAELLETCWQQDPTSRPDFSEIVDILQQIAKEVGDERADRCKEKSAGGFFSALRRGHH
in vitro kinase reaction; phosphorylation detected by Pro-Q Diamond phosphoprotein gel stain after SDS-PAGE: the variant K308M is not an active kinase
